Measurements taken from patent US20260008847A1 (ELPISCIENCE SUZHOU BIOPHARMA, published 2026).

B1: J-19 (antibody, V domains shown)
VH: QVTLKESGPGILQPSHTLSLTCSFSGFSLNTYAMGVSWIRQPSGKGLEWLASIWWNGNKYNNPSLKSRLTVSKDTSNNQAFLKVTSVDTADTATYYCAHSRIIRFTDYVMDAWGQGASVTVSS
VL: DIQMTQSPASLSTFLGEPVTIECRASEDIYNDLAWYQQKPGKSPQLLIYNANSLHTGVPSRFSGSGSGTQYSLKINSLQSEDVASYFCQQYYDYPLTFGSGTKLEIK
notes: Human IgG4 monoclonal antibody with S228P in the constant region, made according to WO 2019/126514 A2; also called benchmark antibody J-19
B2: 1E1 (antibody, V domains shown)
VH: QVQLQQWGAGLLKPSETLSLTCAVYGGSFSGYYWSWIRQPPGKGLEWIGEINHSGSTNYNPSLKSRVTISVDTSKNQFSLKLSSVTAADTAVYYCARLPTRWVTTRYFDLWGRGTLVTVSS
VL: QSVLTQPPSVSGAPGQRVTISCTGSSSNIGAGYDVHWYQQLPGTAPKLLIYGNSNRPSGVPDRFSVSKSGASASLAITGLQAEDEADYYCQSFDNSLSAYVFGGGTQLTVL
notes: Human IgG4 monoclonal antibody with S228P in the constant region, made according to US 2018/0298096 A1; also called benchmark antibody 1E1
B3: 043c (antibody, V domains shown)
VH: QVQLQQSGAELAKPGASVKLSCKASGYTFTSYWMYWVKQRPGQGLEWIGHINPSSGYTKYNQKFKDKATLTADKSSSTAYMQLSSLTYEDSAVYYCARDPNWDNYWGQGTTLTVSS
VL: DIVMTQSHKFMSTSVGDRVSITCKASQDVSIAVAWYQQKPGQSPKLLIYSASYRYTGVPDRFTGSGSGTDFTFTISSVQAEDLAVYYCQQHYSTPYTFGGGTKLEIK
notes: Human IgG4 chimeric antibody with S228P mutation at the Fc region; also called chimeric antibody 043c; parental antibody 043c

What was measured:
[1] = target: T1, Human LILRB2 stably expressed on EL4 cells (EL4/LILRB2) (human, UniProt Q8N423 22-597); assay: Competitive FACS: EL4/LILRB2 cells preincubated with 10 ug/mL antibody, then ANGPTL7 added; inhibition of the ligand's binding to the cells [panel ANGPTL7]
T1 construct: also called EL4-LILRB2 cells; cell membrane human LILRB2
T1 sequence (Q8N423 22-597 limits assumed): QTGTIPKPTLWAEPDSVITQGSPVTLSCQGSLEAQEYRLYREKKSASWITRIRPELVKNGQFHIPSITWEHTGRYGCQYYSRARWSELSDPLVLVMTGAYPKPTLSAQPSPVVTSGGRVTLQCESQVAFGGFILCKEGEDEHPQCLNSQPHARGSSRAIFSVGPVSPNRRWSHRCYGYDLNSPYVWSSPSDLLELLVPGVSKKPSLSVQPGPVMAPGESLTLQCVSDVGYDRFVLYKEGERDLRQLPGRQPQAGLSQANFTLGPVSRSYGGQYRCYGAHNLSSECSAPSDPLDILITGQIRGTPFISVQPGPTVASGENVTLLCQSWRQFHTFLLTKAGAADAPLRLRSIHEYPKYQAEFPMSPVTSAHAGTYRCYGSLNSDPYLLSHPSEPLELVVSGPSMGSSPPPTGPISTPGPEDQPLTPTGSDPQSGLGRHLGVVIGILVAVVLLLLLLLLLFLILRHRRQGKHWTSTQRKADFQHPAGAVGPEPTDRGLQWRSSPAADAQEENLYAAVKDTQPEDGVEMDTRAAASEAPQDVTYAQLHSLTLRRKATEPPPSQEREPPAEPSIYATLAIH
Protocol: (§1) The blocking activities were determined by quantitating the blockade of the ligands binding to EL4/LILRB2 cells.

[2] = target: T2, Human LILRA4 ECD recombinant protein with 6×His-tag (human, UniProt P59901 24-446); assay: ELISA: plate coated with LILRA4 ECD recombinant protein [continued) D]
T2 construct: range 1-446; Bought protein; not shown: 6×His-tag
T2 sequence (P59901 24-446 limits assumed): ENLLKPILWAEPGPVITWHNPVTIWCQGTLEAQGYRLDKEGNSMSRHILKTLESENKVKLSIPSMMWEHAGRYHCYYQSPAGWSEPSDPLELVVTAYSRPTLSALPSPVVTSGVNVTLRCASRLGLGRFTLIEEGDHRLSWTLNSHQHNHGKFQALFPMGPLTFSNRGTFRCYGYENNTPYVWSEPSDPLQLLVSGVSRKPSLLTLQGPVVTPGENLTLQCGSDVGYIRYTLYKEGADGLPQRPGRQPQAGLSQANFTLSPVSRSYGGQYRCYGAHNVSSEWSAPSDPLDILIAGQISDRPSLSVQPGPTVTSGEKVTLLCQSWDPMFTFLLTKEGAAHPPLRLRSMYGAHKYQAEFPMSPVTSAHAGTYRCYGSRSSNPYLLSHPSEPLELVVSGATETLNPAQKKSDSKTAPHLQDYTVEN

[3] = target: T3, Human LILRB5 ECD recombinant protein with 6×His-tag (human, UniProt O75023 24-458, limits assumed); assay: ELISA: plate coated with LILRB5 ECD recombinant protein [continued) I]
T3 construct: Bought protein; not shown: 6×His-tag
T3 sequence (O75023 24-458 limits assumed): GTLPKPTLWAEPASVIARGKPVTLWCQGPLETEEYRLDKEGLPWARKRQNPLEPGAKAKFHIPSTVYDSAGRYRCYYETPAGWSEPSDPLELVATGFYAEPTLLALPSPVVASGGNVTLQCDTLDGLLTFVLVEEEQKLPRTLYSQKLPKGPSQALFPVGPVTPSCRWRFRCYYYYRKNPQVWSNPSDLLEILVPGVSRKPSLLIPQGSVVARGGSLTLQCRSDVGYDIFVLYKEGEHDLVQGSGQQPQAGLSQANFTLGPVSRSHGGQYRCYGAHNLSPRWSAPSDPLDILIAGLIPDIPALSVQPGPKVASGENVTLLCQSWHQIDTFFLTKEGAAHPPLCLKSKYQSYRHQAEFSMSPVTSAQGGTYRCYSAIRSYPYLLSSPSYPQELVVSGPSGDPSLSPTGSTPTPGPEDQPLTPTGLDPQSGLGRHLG

[4] = target: T4, 6×His-tagged human LILRB2 ECD recombinant protein (human, UniProt Q8N423 22-458, limits assumed); assay: Octet tandem binning on captured 6×His LILRB2 ECD; competitor (Ab1) 043c
T4 construct: Bought protein; not shown: 6×His-tag
T4 sequence (Q8N423 22-458 limits assumed): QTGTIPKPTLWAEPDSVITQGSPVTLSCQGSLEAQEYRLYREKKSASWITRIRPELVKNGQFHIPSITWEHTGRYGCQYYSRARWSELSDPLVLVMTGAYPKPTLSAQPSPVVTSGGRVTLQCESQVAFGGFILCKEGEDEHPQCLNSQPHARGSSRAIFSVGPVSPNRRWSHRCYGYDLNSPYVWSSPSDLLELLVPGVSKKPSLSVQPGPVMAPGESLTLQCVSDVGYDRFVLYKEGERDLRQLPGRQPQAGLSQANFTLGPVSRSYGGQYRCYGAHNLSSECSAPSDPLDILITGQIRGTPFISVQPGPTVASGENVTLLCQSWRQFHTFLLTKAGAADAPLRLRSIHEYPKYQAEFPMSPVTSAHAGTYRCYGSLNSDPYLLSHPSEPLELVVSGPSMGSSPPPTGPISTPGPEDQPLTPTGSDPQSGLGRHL

[5] = target: T1, Human LILRB2 stably expressed on EL4 …; assay: Competitive FACS: EL4/LILRB2 cells preincubated with 10 ug/mL antibody, then ANGPTL1 added; inhibition of the ligand's binding to the cells [panel ANGPTL1]
Protocol: as §1

[6] = target: T2, Human LILRA4 ECD recombinant protein …; assay: ELISA: plate coated with LILRA4 ECD recombinant protein, antibody at 0.5 ug/mL (method of example 3.2.1); mean OD450 printed over the bar [continued) D]
Protocol: (§2) Briefly, 0.5 μg/mL anti-LILRB2 antibodies were incubated in human LILRB2 ECD recombinant protein-coated ELISA plate at 37° C. for 1 hour. After washing, horseradish peroxidase (HRP) labeled detection antibody was added and incubated at 37° C. for 1 hour. Color development was conducted by the addition of 100 μl/well of TMB (3,3′,5,5′-Tetramethylbenzidine) solution. After incubation at room temperature (RT) for 10-15 minutes, the reaction was stopped by adding 100 μl 1N HCl. Then the plates were read immediately using plate reader for optical density at 450 nm.

[7] = target: T3, Human LILRB5 ECD recombinant protein …; assay: ELISA: plate coated with LILRB5 ECD recombinant protein, antibody at 0.5 ug/mL (method of example 3.2.1); mean OD450 printed over the bar [continued) I]
Protocol: as §2

[8] = target: T1, Human LILRB2 stably expressed on EL4 …; assay: Competitive FACS: EL4/LILRB2 cells preincubated with 10 ug/mL antibody, then HLA-G complex tetramer added; inhibition of the ligand's binding to the cells [panel HLA-G]
Protocol: as §1

[9] = target: T4, 6×His-tagged human LILRB2 ECD …; assay: Bio-Layer Interferometry (Octet), 1:1 model, human LILRB2 ECD
[10] = target: T4, 6×His-tagged human LILRB2 ECD …; assay: Octet tandem binning on captured 6×His LILRB2 ECD; competitor (Ab1) 1E1
Protocol: (§3) Briefly, the HIS1K sensors were hydrolyzed for 10 minutes followed by capture of 6×His-tagged human LILRB2 ECD recombinant protein to 0.3 nm. The LILRB2 captured sensors were then exposed to Ab1 and Ab2 in tandem or Ab2 directly. The binding signals of Ab2 to LILRB2 under different conditions were detected respectively. Finally, the relative binding signals of Ab2 in tandem were calculated by normalization. High relative binding signals represent low competition between Ab2 and Ab1 for binding antigen. Likewise, low relative association signals represent high competition between Ab2 and Ab1.

[11] = target: T4, 6×His-tagged human LILRB2 ECD …; assay: ELISA: plate coated with 6xHis-tagged human LILRB2 ECD, antibody at 0.5 ug/mL, HRP detection antibody; mean OD450 printed over the bar
Protocol: as §2

[12] = target: T5, Human LILRB1 ECD recombinant protein with 6×His-tag (human, UniProt Q8NHL6 24-458, limits assumed); assay: ELISA: plate coated with LILRB1 ECD recombinant protein, antibody at 0.5 ug/mL (method of example 3.2.1); mean OD450 printed over the bar [continued) F]
T5 construct: Bought protein; not shown: 6×His-tag
T5 sequence (Q8NHL6 24-458 limits assumed): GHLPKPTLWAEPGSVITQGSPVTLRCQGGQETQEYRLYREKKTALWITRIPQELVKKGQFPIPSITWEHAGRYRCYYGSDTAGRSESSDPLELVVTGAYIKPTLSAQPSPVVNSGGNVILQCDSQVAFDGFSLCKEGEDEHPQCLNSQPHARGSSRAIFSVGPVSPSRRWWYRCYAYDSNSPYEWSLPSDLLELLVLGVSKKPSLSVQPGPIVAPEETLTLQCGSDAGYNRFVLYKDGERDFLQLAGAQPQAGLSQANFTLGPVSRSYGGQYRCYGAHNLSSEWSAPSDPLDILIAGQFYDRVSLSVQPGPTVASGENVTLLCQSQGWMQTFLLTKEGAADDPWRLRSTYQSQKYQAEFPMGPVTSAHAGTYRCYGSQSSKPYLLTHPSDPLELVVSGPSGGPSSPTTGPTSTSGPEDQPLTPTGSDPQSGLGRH

[13] = target: T4, 6×His-tagged human LILRB2 ECD …; assay: Octet tandem binning on captured 6×His LILRB2 ECD; competitor (Ab1) J-19
Protocol: as §3

[14] = target: T1, Human LILRB2 stably expressed on EL4 …; assay: Competitive FACS: EL4/LILRB2 cells preincubated with 10 ug/mL antibody, then MAG ECD added; inhibition of the ligand's binding to the cells [panel MAG]
Protocol: as §1

[15] = target: T6, Human LILRB3 ECD recombinant protein with 6×His-tag (human, UniProt O75022 24-443); assay: ELISA: plate coated with LILRB3 ECD recombinant protein [continued) G]
T6 construct: range 1-443; Bought protein; not shown: 6×His-tag

[16] = target: T7, Human LILRA5 ECD recombinant protein with 6×His-tag (human, UniProt A6NI73 42-268); assay: ELISA: plate coated with LILRA5 ECD recombinant protein, antibody at 0.5 ug/mL (method of example 3.2.1); mean OD450 printed over the bar [continued) E]
T7 construct: range 1-268; Bought protein; not shown: 6×His-tag
T7 sequence (A6NI73 42-268 limits assumed, form in doubt): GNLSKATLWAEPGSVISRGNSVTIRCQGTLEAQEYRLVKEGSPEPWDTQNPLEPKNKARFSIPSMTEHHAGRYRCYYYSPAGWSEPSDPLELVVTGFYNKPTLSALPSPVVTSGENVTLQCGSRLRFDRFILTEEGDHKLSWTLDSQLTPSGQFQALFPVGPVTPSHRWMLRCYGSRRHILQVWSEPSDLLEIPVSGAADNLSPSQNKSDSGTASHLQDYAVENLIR

[17] = target: T1, Human LILRB2 stably expressed on EL4 …; assay: Competitive FACS: EL4/LILRB2 cells preincubated with 10 ug/mL antibody, then ANGPTL4 added; inhibition of the ligand's binding to the cells [panel ANGPTL4]
Protocol: as §1

[18] = target: T5, Human LILRB1 ECD recombinant protein …; assay: ELISA: plate coated with LILRB1 ECD recombinant protein [continued) F]
[19] = target: T1, Human LILRB2 stably expressed on EL4 …; assay: Competitive FACS: EL4/LILRB2 cells preincubated with 10 ug/mL antibody, then HLA-A2 complex added; inhibition of the ligand's binding to the cells [panel HLA-A2]
Protocol: as §1

[20] = target: T1, Human LILRB2 stably expressed on EL4 …; assay: competitive FACS on EL4/LILRB2 cells, blockade of HLA-G binding
Protocol: as §1

Binder	Inhibition (%) [1]	binding result [2]	binding result [3]	relative binding signal of Ab2 in tandem [4]	Inhibition (%) [5]	OD450 [6]	OD450 [7]	Inhibition (%) [8]	Kd [9]	koff [9]	kon [9]	relative binding signal of Ab2 in tandem [10]	OD450 [11]	OD450 [12]	relative binding signal of Ab2 in tandem [13]	Inhibition (%) [14]	binding result [15]	OD450 [16]	Inhibition (%) [17]	binding result [18]	also measured
B1	97%	no binding (tested: 0.5 ug/mL)	no binding (tested: 0.5 ug/mL)	96%	70%	0.17	0.09	100%	2.14 nM	0.00178 s⁻¹	830000 M⁻¹ s⁻¹	32%	3.27	0.1	-3%	13%	no binding (tested: 0.5 ug/mL)	0.09	59%	no binding (tested: 0.5 ug/mL)	Inhibition (%) [19]: 100%; IC50 [20]: 0.04 nM; TOP Blocking (%) [20]: 100%
B2	96%	no binding (tested: 0.5 ug/mL)	no binding (tested: 0.5 ug/mL)	100%	70%	0.12	0.07	100%	8.07 nM	0.00204 s⁻¹	253000 M⁻¹ s⁻¹	3%	1.42	0.08	17%	93%	no binding (tested: 0.5 ug/mL)	0.07	54%	no binding (tested: 0.5 ug/mL)	Inhibition (%) [19]: 99%; IC50 [20]: 0.32 nM; TOP Blocking (%) [20]: 100%
B3	89%	no binding (tested: 0.5 ug/mL)	no binding (tested: 0.5 ug/mL)	3%	71%	0.13	0.08	100%	0.74 nM	0.000557 s⁻¹	756000 M⁻¹ s⁻¹	108%	2.72	0.08	100%	90%	no binding (tested: 0.5 ug/mL)	0.08	63%	no binding (tested: 0.5 ug/mL)	Inhibition (%) [19]: 100%; IC50 [20]: 0.1 nM; TOP Blocking (%) [20]: 100%
